Measurements reported in patent publication US20240141027A1 (BIOARCTIC, published 2024).
Values belong to the binder of their own block, whether it stands above or below them.

Experiments:
[1] = biological target: T1, recombinant murine transferrin receptor 1 (mTfR1), extracellular domain fused to a His-tag (murine, UniProt Q62351 89-763); test: indirect ELISA, plates coated with recombinant mTfR1
T1 construct: Position of the His-tag (N or C) unknown; also called recombinant mTfR1; murine TfR1; not shown: His-tag
T1 sequence (Q62351 89-763): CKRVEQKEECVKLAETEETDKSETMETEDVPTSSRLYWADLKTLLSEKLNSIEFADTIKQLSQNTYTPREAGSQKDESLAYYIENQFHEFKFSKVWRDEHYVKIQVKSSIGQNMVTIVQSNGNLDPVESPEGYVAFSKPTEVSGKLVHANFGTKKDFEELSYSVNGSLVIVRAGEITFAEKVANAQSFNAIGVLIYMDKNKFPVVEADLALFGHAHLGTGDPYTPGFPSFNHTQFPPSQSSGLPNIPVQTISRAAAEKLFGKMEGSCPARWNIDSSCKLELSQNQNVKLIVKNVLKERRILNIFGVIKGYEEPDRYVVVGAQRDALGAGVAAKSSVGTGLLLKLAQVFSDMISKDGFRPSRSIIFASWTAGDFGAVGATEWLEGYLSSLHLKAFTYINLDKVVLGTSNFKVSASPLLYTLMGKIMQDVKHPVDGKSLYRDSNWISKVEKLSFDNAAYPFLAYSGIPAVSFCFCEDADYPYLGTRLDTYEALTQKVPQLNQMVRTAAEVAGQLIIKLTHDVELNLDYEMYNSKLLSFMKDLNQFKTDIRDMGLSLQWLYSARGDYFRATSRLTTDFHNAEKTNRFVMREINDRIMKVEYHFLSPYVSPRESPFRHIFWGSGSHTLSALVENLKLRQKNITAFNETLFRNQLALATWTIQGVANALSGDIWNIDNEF
Experimental: Binding of selected expressed constructs to mTfR1 was assessed by indirect ELISA (FIG. 4). In brief, half area 96-well plates (Corning, #3690) were coated with 1 μg/ml recombinant mTfR1, produced as described in Example 4, in PBS overnight at 4° C. The coated plates were blocked using Pierce protein-free blocking solution (Thermo Fisher Scientific, #37572) for 1 h at room temperature with shaking and washed four times in PBS containing 0.1% TWEEN-20. Serial dilutions (1:3) of expressed constructs in incubation buffer (1% BSA, 0.1% TWEEN-20 in PBS) were incubated for 1 h at room temperature. Following the four wash steps, bound test constructs were detected by addition of anti-mouse-IgG F(ab′)2-HRP antibody (Jackson Immuno Research, #115-035-006) at 1:1250 dilution in incubation buffer (1 h, room temperature). Following four wash steps, K-Blue® Aqueous TMB substrate (Neogen, #331177) was added to the wells for 15 min at room temperature before the reaction was stopped with 1:1 dilution of 0.5 M H₂SO₄. The optical density at 450 nm was recorded (Spark, Tecan) and background signal was subtracted before analysis.

[2] = biological target: T2, mTfR1 expressed on cell surfaces of Immortalized Mouse Cerebral Capillary Endothelial Cells (cEND) (mouse, UniProt Q62351 1-763); test: flow cytometry on cEND cells, 100 nM, 4° C., anti-mouse IgG-PE
T2 construct: whole, on cells; also called mTfR1 on cEND cells
T2 sequence (Q62351 whole entry): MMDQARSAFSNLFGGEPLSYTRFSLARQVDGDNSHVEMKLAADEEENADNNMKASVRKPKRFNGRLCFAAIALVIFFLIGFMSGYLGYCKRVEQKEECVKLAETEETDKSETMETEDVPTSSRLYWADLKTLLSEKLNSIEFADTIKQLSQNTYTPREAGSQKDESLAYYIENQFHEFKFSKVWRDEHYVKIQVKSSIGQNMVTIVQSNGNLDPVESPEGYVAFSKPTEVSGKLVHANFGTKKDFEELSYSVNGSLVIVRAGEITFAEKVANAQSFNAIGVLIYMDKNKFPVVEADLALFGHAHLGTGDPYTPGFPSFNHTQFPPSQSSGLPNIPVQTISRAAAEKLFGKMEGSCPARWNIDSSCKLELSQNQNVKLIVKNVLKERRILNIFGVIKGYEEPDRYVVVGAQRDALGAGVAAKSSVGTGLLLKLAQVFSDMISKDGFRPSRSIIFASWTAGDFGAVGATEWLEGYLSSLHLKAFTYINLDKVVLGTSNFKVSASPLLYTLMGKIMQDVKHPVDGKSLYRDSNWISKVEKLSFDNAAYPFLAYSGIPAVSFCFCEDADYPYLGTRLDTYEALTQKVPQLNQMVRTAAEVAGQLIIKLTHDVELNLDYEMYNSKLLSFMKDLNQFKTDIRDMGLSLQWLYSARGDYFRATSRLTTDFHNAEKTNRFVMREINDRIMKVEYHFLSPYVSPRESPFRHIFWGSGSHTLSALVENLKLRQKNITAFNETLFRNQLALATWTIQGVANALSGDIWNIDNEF
Experimental: Binding and uptake mediated by TfR1 was measured on Immortalized Mouse Cerebral Capillary Endothelial Cells (cEND) (ABM, #T0290).
The pellet was resuspended in PBS and 200,000 cells per well were seeded in U-bottom 96-well Corning plates for flow cytometry staining. Cells were then washed with PBS and incubated with 100 nM of one of the mAb158-8D3 constructs mAb158-scLc-8D3-Ig.1, mAb158-scLc-8D3-Ig.2 and mAb158-scLc-8D3-Ig.3, control 8D3 IgG (light chain of SEQ ID NO:17, heavy chain of SEQ ID NO:19) or murine IgG control for 45 min at 4° C. After primary incubation, cells were washed twice with ice cold PBS, and mAb158-8D3 constructs were captured using a fluorescently labeled secondary anti-mouse IgG-PE antibody (BD Biosciences, 550589). After incubation, cells were washed twice with PBS and resuspended in 200 μl PBS. Cells were acquired in a BD FACSLyric flow cytometer system (BD Biosciences) and samples were analyzed using FCS Express software (De Novo Software).

[3] = biological target: T1, recombinant murine transferrin receptor …; test: BLI (Octet), mTfR1 captured on biotinylated human holo-transferrin on streptavidin sensors
Experimental: Binding of expressed constructs to mTfR1 was assessed by Bio-Layer Interferometry (Octet RED384, ForteBio). High-precision streptavidin sensors were loaded in two consecutive steps: first with 20 μg/ml of biotinylated human holo-transferrin (Sigma) during 180 s and then with 20 μg/ml recombinant mTfR1, produced as described in Example 4, during 180 s. Thereafter, association of the samples to the loaded sensors was measured for 120 s, followed by dissociation for 300 s. Binding was analyzed with samples diluted to 17.5 μg/ml for mAb158-scLc-8D3-Ig.1 and mAb158-scLc-8D3-Ig.2, to 18 μg/ml for mAb158-scLc-8D3-Ig.3 and to 4.9 μg/ml for 8D3 Fab (corresponding to 100 nM of respective binding molecule). The response from a buffer sample was subtracted. All samples were diluted in 1× Kinetics buffer (ForteBio). The same buffer was used for baseline and dissociation steps. […] As controls, the 8D3 Fab and the antibody mAb158 IgG were included.

recombinant Aβ1-42 = biological target: T3, recombinant Aβ1-42; test: indirect ELISA, plates coated with recombinant Aβ1-42
T3 construct: Coated at 0.5 µg/ml on ELISA plates; also called Amyloid Beta (Aβ1-42)
T3 sequence (peptide, as listed by the source): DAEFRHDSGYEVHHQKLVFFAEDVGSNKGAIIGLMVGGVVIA

[4] = biological target: T1, recombinant murine transferrin receptor …; test: BLI (Octet), mTfR1 captured on holo-transferrin sensors, analyte 50 nM

- binding result [1]: binds
B1: mAb158-scLc-8D3-Ig.1 (bispecific antibody, human IgG1, kappa)
heavy: not shown
chain: DIVMTQAPLSLPVSLGDQASISCRSSQSIVHSNGNTYLEWYLQKPGQSPKLLIYKVSNRFSGVPDRFSGSGSGTDFTLKISRVEAEDLGIYYCFQGSHVPPTFGGGTKLEIKRADAAPTVSIFPPSSEQLTSGGASVVCFLNNFYPKDINVKWKIDGSERQNGVLNSWTDQDSKDSTYSMSSTLTLTKDEYERHNSYTCEATHKTSTSPIVKSFNRNECGGGGSGGGGSGGGGSEVQLVESGGGLVQPGNSLTLSCVASGFTFSNYGMHWIRQAPKKGLEWIAMIYYDSSKMNYADTVKGRFTISRDNSKNTLYLEMNSLRSEDTAMYYCAVPTSHYVVDVWGQGVSVTVSSGGGGSGGGGSGGGGSDIQMTQSPASLSASLEEIVTITCQASQDIGNWLAWYQQKPGKSPQLLIYGATSLADGVPSRFSGSRSGTQFSLKISRVQVEDIGIYYCLQAYNTPWTFGGGTKLELKRGGSSGSGSGSTGTSSSGTGTSAGTTGTSASTSGSGSDIVMTQAPLSLPVSLGDQASISCRSSQSIVHSNGNTYLEWYLQKPGQSPKLLIYKVSNRFSGVPDRFSGSGSGTDFTLKISRVEAEDLGIYYCFQGSHVPPTFGGGTKLEIKRADAAPTVSIFPPSSEQLTSGGASVVCFLNNFYPKDINVKWKIDGSERQNGVLNSWTDQDSKDSTYSMSSTLTLTKDEYERHNSYTCEATHKTSTSPIVKSFNRNEC
- binding result [2]: binds

- binding result [3]: binds
B2: mAb158-scLc-8D3-Ig.4 (bispecific antibody, human IgG1, kappa)
heavy: not shown
chain: DIVMTQAPLSLPVSLGDQASISCRSSQSIVHSNGNTYLEWYLQKPGQSPKLLIYKVSNRFSGVPDRFSGSGSGTDFTLKISRVEAEDLGIYYCFQGSHVPPTFGGGTKLEIKRADAAPTVSIFPPSSEQLTSGGASVVCFLNNFYPKDINVKWKIDGSERQNGVLNSWTDQDSKDSTYSMSSTLTLTKDEYERHNSYTCEATHKTSTSPIVKSFNRNECGGGGSGGGGSGGGGSGGGGSGGGGSGGGGSDIVMTQAPLSLPVSLGDQASISCRSSQSIVHSNGNTYLEWYLQKPGQSPKLLIYKVSNRFSGVPDRFSGSGSGTDFTLKISRVEAEDLGIYYCFQGSHVPPTFGGGTKLEIKRADAAPTVSIFPPSSEQLTSGGASVVCFLNNFYPKDINVKWKIDGSERQNGVLNSWTDQDSKDSTYSMSSTLTLTKDEYERHNSYTCEATHKTSTSPIVKSFNRNECGGGGSGGGGSGGGGSEVQLVESGGGLVQPGNSLTLSCVASGFTFSNYGMHWIRQAPKKGLEWIAMIYYDSSKMNYADTVKGRFTISRDNSKNTLYLEMNSLRSEDTAMYYCAVPTSHYVVDVWGQGVSVTVSSGGGGSGGGGSGGGGSDIQMTQSPASLSASLEEIVTITCQASQDIGNWLAWYQQKPGKSPQLLIYGATSLADGVPSRFSGSRSGTQFSLKISRVQVEDIGIYYCLQAYNTPWTFGGGTKLELKR
notes: Format [LC-L1-LC-L2-scBM]

- binding result [3]: no binding
B3: mAb158-scLc-Ig.6 (antibody, human IgG1, kappa)
heavy: not shown
chain: DIVMTQAPLSLPVSLGDQASISCRSSQSIVHSNGNTYLEWYLQKPGQSPKLLIYKVSNRFSGVPDRFSGSGSGTDFTLKISRVEAEDLGIYYCFQGSHVPPTFGGGTKLEIKRADAAPTVSIFPPSSEQLTSGGASVVCFLNNFYPKDINVKWKIDGSERQNGVLNSWTDQDSKDSTYSMSSTLTLTKDEYERHNSYTCEATHKTSTSPIVKSFNRNECGGGGSGGGGSGGGGSGGGGSGGGGSGGGGSGGGGSGGGGSGGGGSGGGGSDIVMTQAPLSLPVSLGDQASISCRSSQSIVHSNGNTYLEWYLQKPGQSPKLLIYKVSNRFSGVPDRFSGSGSGTDFTLKISRVEAEDLGIYYCFQGSHVPPTFGGGTKLEIKRADAAPTVSIFPPSSEQLTSGGASVVCFLNNFYPKDINVKWKIDGSERQNGVLNSWTDQDSKDSTYSMSSTLTLTKDEYERHNSYTCEATHKTSTSPIVKSFNRNEC

- binding result [3]: no binding (tested: 50 nM)
B4: mAb158 IgG (antibody, V domains shown)
VH: EVKLMESGGGLVQPGGSRKLSCAASGFTFSSFGMHWVRQAPEKGLEWVAYISSGSSTIYYGDTVKGRFTISRDNPKNTLFLQMTSLRSEDTAMYYCAREGGYYYGRSYYTMDYWGQGTSVTVSS
VL: DIVMTQAPLSLPVSLGDQASISCRSSQSIVHSNGNTYLEWYLQKPGQSPKLLIYKVSNRFSGVPDRFSGSGSGTDFTLKISRVEAEDLGIYYCFQGSHVPPTFGGGTKLEIKR
notes: also called unmodified mAb158 IgG control; unmodified mAb158 control

- binding result [3]: binds
B5: mAb158-scLc-8D3-Ig.5 (bispecific antibody, human IgG1, kappa)
heavy: not shown
chain: DIVMTQAPLSLPVSLGDQASISCRSSQSIVHSNGNTYLEWYLQKPGQSPKLLIYKVSNRFSGVPDRFSGSGSGTDFTLKISRVEAEDLGIYYCFQGSHVPPTFGGGTKLEIKRADAAPTVSIFPPSSEQLTSGGASVVCFLNNFYPKDINVKWKIDGSERQNGVLNSWTDQDSKDSTYSMSSTLTLTKDEYERHNSYTCEATHKTSTSPIVKSFNRNECGGGGSGGGGSGGGGSGGGGSGGGGSGGGGSGGGGSGGGGSGGGGSGGGGSDIVMTQAPLSLPVSLGDQASISCRSSQSIVHSNGNTYLEWYLQKPGQSPKLLIYKVSNRFSGVPDRFSGSGSGTDFTLKISRVEAEDLGIYYCFQGSHVPPTFGGGTKLEIKRADAAPTVSIFPPSSEQLTSGGASVVCFLNNFYPKDINVKWKIDGSERQNGVLNSWTDQDSKDSTYSMSSTLTLTKDEYERHNSYTCEATHKTSTSPIVKSFNRNECGGGGSGGGGSGGGGSEVQLVESGGGLVQPGNSLTLSCVASGFTFSNYGMHWIRQAPKKGLEWIAMIYYDSSKMNYADTVKGRFTISRDNSKNTLYLEMNSLRSEDTAMYYCAVPTSHYVVDVWGQGVSVTVSSGGGGSGGGGSGGGGSDIQMTQSPASLSASLEEIVTITCQASQDIGNWLAWYQQKPGKSPQLLIYGATSLADGVPSRFSGSRSGTQFSLKISRVQVEDIGIYYCLQAYNTPWTFGGGTKLELKR
notes: Format [LC-L1-LC-L2-scBM]

- binding result (recombinant Aβ1-42): binds
- binding result [4]: binds
B6: mAb158-scLc-8D3-Ig.15 (bispecific antibody, human IgG1, kappa)
heavy: not shown
chain: DIVMTQAPLSLPVSLGDQASISCRSSQSIVHSNGNTYLEWYLQKPGQSPKLLIYKVSNRFSGVPDRFSGSGSGTDFTLKISRVEAEDLGIYYCFQGSHVPPTFGGGTKLEIKRADAAPTVSIFPPSSEQLTSGGASVVCFLNNFYPKDINVKWKIDGSERQNGVLNSWTDQDSKDSTYSMSSTLTLTKDEYERHNSYTCEATHKTSTSPIVKSFNRNECGGGGSGGGGSGGGGSGGGGSGGGGSDIQMTQSPASLSASLEEIVTITCQASQDIGNWLAWYQQKPGKSPQLLIYGATSLADGVPSRFSGSRSGTQFSLKISRVQVEDIGIYYCLQAYNTPWTFGGGTKLELKRGGGGSGGGGSGGGGSEVQLVESGGGLVQPGNSLTLSCVASGFTFSNYGMHWIRQAPKKGLEWIAMIYYDSSKMNYADTVKGRFTISRDNSKNTLYLEMNSLRSEDTAMYYCAVPTSHYVVDVWGQGVSVTVSSGGGGSGGGGSGGGGSGGGGSDIVMTQAPLSLPVSLGDQASISCRSSQSIVHSNGNTYLEWYLQKPGQSPKLLIYKVSNRFSGVPDRFSGSGSGTDFTLKISRVEAEDLGIYYCFQGSHVPPTFGGGTKLEIKRADAAPTVSIFPPSSEQLTSGGASVVCFLNNFYPKDINVKWKIDGSERQNGVLNSWTDQDSKDSTYSMSSTLTLTKDEYERHNSYTCEATHKTSTSPIVKSFNRNEC
notes: Format [LC-L1-scBM-L2-LC]; also called mAb158-scLc-Ig.15
